Four molecules from patent publication KR20230039786A (dated 2023) can be followed below.

In this assay the target is SARS-CoV NP antigen (Sino Biological) (SARS-CoV, UniProt P59595 1-422). As to the kind of experiment: indirect ELISA, SARS-CoV NP coated, anti-mouse IgG-HRP. (An ELISA detects its analyte on a solid surface through an enzyme-linked reagent.)
Chain of SARS-CoV NP antigen (Sino Biological) (P59595 whole entry): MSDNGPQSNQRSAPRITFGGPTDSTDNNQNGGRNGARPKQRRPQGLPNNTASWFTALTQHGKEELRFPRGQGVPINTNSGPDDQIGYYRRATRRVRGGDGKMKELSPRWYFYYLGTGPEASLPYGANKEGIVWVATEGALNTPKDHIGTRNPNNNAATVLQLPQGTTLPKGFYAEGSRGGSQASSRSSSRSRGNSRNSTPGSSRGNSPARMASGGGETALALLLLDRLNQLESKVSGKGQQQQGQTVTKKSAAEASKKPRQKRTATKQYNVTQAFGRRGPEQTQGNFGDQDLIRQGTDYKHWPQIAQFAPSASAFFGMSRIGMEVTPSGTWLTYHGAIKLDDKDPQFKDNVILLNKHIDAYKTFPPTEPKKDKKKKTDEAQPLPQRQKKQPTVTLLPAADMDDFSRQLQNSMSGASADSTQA

B1: 3F10 anti-NP monoclonal antibody (antibody, V domains shown)
VH: EVQLEESGPELKKPGETVKISCKASGYTFTDYSMHWVKQAPGKGLKWMGWINTETGEPTYADDFKGRFAFSLETSASTASLQINNLKNEDTATYFCGSGSRYSWYFDVWGAGTTVTVSS
VL: DIVLTQSPKFMSTSLGDRVSVTCKASQSVGTNVAWFQQNSGQSPKALIYSASYRYSGVPDRFTGSGSGTDFTLTISNVKSEDLAEYFCQQYNSYPLAFGGGTKVEIK
Usually EC50 stands for the concentration needed to bring the measured effect to its halfway point. For the molecule B1, it took 10 ng/mL to reach a half-maximal effect (EC50).

B2: 5B6 anti-NP monoclonal antibody (antibody, V domains shown)
VH: QVQLQESGPELKKPGETVKISCTASGYTFANYGMNWVKQAPGKGLKWMGWINTYTGETTYADDFKGRFAFSLETSASTASLQINKLKNEDTATYFCTRSVLLRSYFDYGGQGTTLTVSS
VL: DIVMTQSPKFMSTSVGDRVSITCEASQDVTTAVAWYQQKPGQSPKLLIYSASYRFAGVPDRFTGSGSGTDFTFTISSVQAEDLAVYYCQQHYSSPLTFGAGTKLELK
As for B2, a half-maximal effect (EC50) was put at 4 ng/mL.

B3: 3E10 anti-NP monoclonal antibody (antibody, V domains shown)
VH: EVQLEQSGPELVRPGVSVKISCKGSGYTFTDYAMHWVKQSHAKSLEWIGVISTYSGNTSYNQKFKGKATMTVDKSSSTAYMELARLTAEDSAIYYCANGGNYGFDYWGQGTTLTVSS
VL: DIVLTQSPKFMSTSVGDRVSITCKASQDVGTAVAWYQQKPGQSPRLLIYWTSTRHTGVPDRFTGSGSGTDFTLTISNVQSEDLADYFCQQYSSYPLTFGGGTKLEIK
B3 registered an EC50 of 2 ng/mL.

B4: 5B6.8 anti-NP monoclonal antibody (antibody, V domains shown)
VH: QVQLQESGPELVRPGVSVKISCKGSGYTFTDYAMHWVKQSHAKSLEWIGVISTYSGNTSYNQKFKGKATMTVDKSSSTAYMELARLTAEDSAIYYCANGGNYGFDYWGQGTTLTVSS
VL: DIVITQSPKFMSTSVGDRVSITCEASQDVTTAVAWYQQKPGQSPKLLIYSASYRFTGVPDRFTGSGSGTDFTFTISSVQAEDLAVYYCQQHYSSPLTFGAGTKLELK
Take B4: the response was half-maximal at 1320 ng/mL (EC50).
